Consider 3 molecules from US20100119516A1 (Eli Lilly, published 2010).

Changes are numbered by the printed parent chain.

Experiment [1] has as its target T1, native human TGFβRII expressed on the cell surface (human, UniProt P37173 23-567). The experiment in a line: cell-based or functional assay.
Experiment [2] concerns the target T2, soluble recombinant human TGFβRII alkaline phosphatase (TGFβRII-AP) (human, UniProt P37173 23-166).
T2 construct: also called TGFβII-AP; not shown: alkaline phosphatase fusion partner
In words: blocking ELISA: TGFβRII-AP binding to coated human TGFβ1. The source says: (§1) At day 10 to 12 post-fusion, the hybridomas are screened for antibody production and specific binding activity of culture supernatants with TGFβRII protein in ELISA-based binding and blocking assays. Specifically, hybridomas producing anti-TGFβRII mAbs are first identified by detection of TGFβRII-bound antibody with a goat anti-human kappa light chain or anti-mouse IgG horse radish peroxidase (HRP) conjugated antibody according to the following procedure. Human TGFβRII-Fc or mouse TGFβRII-Fc is coated at 100 ng/well on 96 microtiter plates at 4° C. overnight. The coated plates are blocked with the blocking buffer (PBS 0.05% TWEEN® 20 containing 5% dry milk) at room temperature for 2 hours. Hybridoma supernatants or purified antibodies are diluted in PBS with 2% bovine serum albumin (BSA) and 0.05% TWEEN® 20 (ELISA buffer) and incubated in TGFβRII-coated, 96-well, microtiter plates for 30 minutes. Plates are washed with the ELISA buffer and incubated with goat anti-human kappa light chain or anti-mouse IgG-HRP conjugate for 30 minutes. TMB (3,3′,5,5′-tetra-methylbenzidine) substrate is used for color development following the manufacturer's instructions. The absorbance at 450 nanometers (nm) is read for quantification of binding activity of antibodies. For identification of hybridomas producing neutralizing anti-TGFβRII mAbs, an ELISA based blocking assay is performed according to the following procedure. TGFβ1, TGFβ2, or TGFβ3 is coated at 200 ng per well on 96-well plates, and wells are then blocked with the blocking buffer. […] The absorbance at 405 nm is read for quantification of TGFβRII-binding to TGFβ1, TGFβ2, and TGFβ3. Optical density (OD) values are read on a microtiter plate reader (Molecular Devices Corp., Sunnyvale, Calif.).
(§2) The binding and blocking activity of purified anti-TGFβRII mAbs is determined in ELISA as described in “Generation of anti-TGFβRII mAbs” above. ED₅₀ and IC₅₀ of the antibodies are analyzed using GraphPad Prism® software 3.03 (GraphPad Software Inc., San Diego, Calif.).
(In general: In an ELISA, binding on a coated surface is turned into a signal by an enzyme label.)

Experiment [3] has as its target T2, soluble recombinant human TGFβRII …. In words: blocking ELISA: TGFβRII-AP binding to coated human TGFβ2.
From the text: as §1, §2

The target is the same in experiment [4]. The experiment in a line: blocking ELISA: TGFβRII-AP binding to coated human TGFβ3.
From the text: as §1, §2

The target of experiment [5] is T3, human TGFβRII-Fc (recombinant extracellular domain of human TGFβRII linked with human Fc or heavy chain … (human, UniProt P37173 23-166)).
T3 construct: not shown: human Fc or heavy chain constant region
The experiment in a line: binding ELISA on coated human TGFβRII-Fc (given as ED50).
From the text: as §1, §2

In experiment [6] the target is T3, human TGFβRII-Fc (recombinant …). The experiment in a line: SPR (Biacore), human TGFβRII ECD-Fc immobilised, room temperature. The procedure:
(§3) Kinetic analyses of the mAbs are performed by immobilization of a fusion protein of recombinant extracellular domain of either mouse TGFβRII (SEQ ID NO: 51), or the extracellular domain of human TGFβRII (SEQ ID NO: 52) linked, respectively, with either mouse or human Fc or heavy chain constant region, onto a sensor surface at a concentration of from 5 to 100 nM.

Experiment [7] has the same target. The experiment in a line: SPR (BIAcore 2000), human TGFβRII ECD-Fc immobilised, room temperature. The procedure:
as §3
(In general: In SPR one partner is held on a chip, and binding of the other changes the refractive index at the surface.)

Experiment [8] concerns the target T1, native human TGFβRII expressed on the …. In words: flow cytometry on 293-human TGFβRII transfectant cells; MFI against isotype control. The procedure:
(§4) Binding activity of anti-human TGFβRII mAb TGF1 and fluorescein isothiocyanate (FITC)-labeled goat anti-human IgG antibody may be determined by a staining assay with 293-human TGFβRII transfectant cells and human carcinoma cells. Specifically, aliquots of transfectant cells, carcinoma cells, spleen cells, or lymph node cells are harvested from subconfluent cultures and incubated with fluorescein-labeled or unlabeled primary antibodies to desired molecules in PBS with 1% BSA (staining buffer) for 1 hour on ice. A matched IgG isotype is used as a negative control. Cells are washed twice with the staining buffer and then incubated with FITC, Phycoerythrin (PE) or Alxas Red labeled species-specific secondary antibody to primary antibody (BioSource International, Camarillo, Calif.) in the buffer for 30 min on ice. Cells are washed as above and analyzed on a flow cytometer. […] The mean fluorescent intensity units (MFIU) are calculated as the mean log fluorescence multiplied by the percentage of positive population. The mean fluorescent intensity ratio (MFIR) is calculated to quantitate relative expression levels of TGFβRII in the cell lines. The MFIR is the mean fluorescence intensity (MFI) of cells stained with TGFβRII specific mAb divided by the MFI of cells stained with an isotype control antibody.
In general terms: In flow cytometry, cells or beads pass a laser one at a time.

Experiment [9] shares this target. The experiment in a line: flow cytometry on MDA-MB-231 human breast carcinoma cells; MFI against isotype control. The procedure: as §4
The target in experiment [10] is T4, mouse TGFβRII-Fc (recombinant extracellular domain of mouse TGFβRII linked with mouse Fc or heavy chain … (mouse)).
T4 construct: also called murine TGFβRII; not shown: mouse Fc or heavy chain constant region
T4 chain: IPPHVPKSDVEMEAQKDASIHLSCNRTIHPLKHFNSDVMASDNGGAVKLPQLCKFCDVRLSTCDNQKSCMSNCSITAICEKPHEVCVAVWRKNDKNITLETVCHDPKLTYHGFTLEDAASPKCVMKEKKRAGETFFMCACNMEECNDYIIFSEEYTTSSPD
The experiment in a line: ELISA.

T1 sequence (P37173 23-567): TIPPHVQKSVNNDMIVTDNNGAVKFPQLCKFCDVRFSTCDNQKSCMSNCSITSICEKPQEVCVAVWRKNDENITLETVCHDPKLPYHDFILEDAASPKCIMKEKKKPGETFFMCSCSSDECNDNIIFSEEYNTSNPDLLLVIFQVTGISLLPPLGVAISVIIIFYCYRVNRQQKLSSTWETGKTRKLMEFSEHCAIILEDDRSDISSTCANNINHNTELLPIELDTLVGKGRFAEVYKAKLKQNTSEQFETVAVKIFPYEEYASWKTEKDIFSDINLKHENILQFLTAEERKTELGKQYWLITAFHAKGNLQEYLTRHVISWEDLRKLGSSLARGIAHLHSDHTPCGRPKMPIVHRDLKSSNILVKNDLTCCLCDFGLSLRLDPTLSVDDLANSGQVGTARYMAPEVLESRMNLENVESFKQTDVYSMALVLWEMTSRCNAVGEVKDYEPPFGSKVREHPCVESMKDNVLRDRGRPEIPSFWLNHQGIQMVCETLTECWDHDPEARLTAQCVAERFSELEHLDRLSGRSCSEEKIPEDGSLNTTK
T3 sequence (P37173 23-166): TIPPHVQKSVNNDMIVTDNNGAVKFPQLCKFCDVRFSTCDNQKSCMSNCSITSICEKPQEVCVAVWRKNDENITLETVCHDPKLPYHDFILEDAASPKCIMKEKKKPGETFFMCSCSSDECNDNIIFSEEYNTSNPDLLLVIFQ
T2 sequence (P37173 23-166): as above

B1: anti-human TGFβRII mAb TGF1 (antibody, human IgG1, kappa, V domains shown)
VH: QLQVQESGPGLVKPSETLSLTCTVSGGSISNSYFSWGWIRQPPGKGLEWIGSFYYGEKTYYNPSLKSRATISIDTSKSQFSLKLSSVTAADTAVYYCPRGPTMIRGVIDSWGQGTLVTVSS
VL: EIVLTQSPATLSLSPGERATLSCRASQSVRSYLAWYQQKPGQAPRLLIYDASNRATGIPARFSGSGSGTDFTLTISSLEPEDFAVYYCQQRSNWPPTFGQGTKVEIKG
notes: Human antibody from human-immunoglobulin transgenic mice, engineered as full-length human IgG1 with kappa light chain
For orientation: IC50 means the concentration at which inhibition is half-maximal. One may read the EC50 as the midpoint of the concentration-response curve. By Kd is commonly meant a measure of binding affinity in units of concentration. By koff is commonly meant the first-order rate constant of dissociation. One may read the kon as a measure of how fast the partners come together. As to B1, the “IC50 in the p-Smad2 inhibition assay (TGFβ-induced phosphorylation of Smad2, MDA-MB-231 cells, Western blot)” value in experiment [1] was found to be 5 nM. Moreover, the IC50 in experiment [2] amounted to 0.12 nM; in [3], 0.54 nM; in experiment [4], 0.19 nM. Further, the EC50 in experiment [5] stood at 0.059 nM. Moreover, the Kd in experiment [6] and in experiment [7] was 0.011 nM in each case. Besides, the off-rate (koff) in experiment [7] came to 1.7e-05 s⁻¹. In addition, the kon in experiment [7] was 1.5e+06 M⁻¹ s⁻¹. In addition, the “MFIR (mean fluorescent intensity ratio)” value amounted to 46 in experiment [8] and 209 in [9].

B2: anti-human TGFβRII mAb TGF3 (antibody, human IgG1, kappa, V domains shown)
VH: QLQLQESGPGLVKPSETLSLTCTVSGGSISSSSYSWGWIRQPPGKGLEWIGSFYYSGITYYSPSLKSRIIISEDTSKNQFSLKLSSVTAADTAVYYCASGFTMIRGALDYWGQGTLVTVSS
VL: B1 VL with Y32F
notes: Human IgG1 with kappa light chain
In the case of B2, the binding result in [10] is given as “binds”. In [1], the “IC50 in the p-Smad2 inhibition assay (TGFβ-induced phosphorylation of Smad2)” value is under 25 nM. In addition, the IC50 in [2] was 0.1 nM; in experiment [3] it was 0.41 nM; in experiment [4] it was 0.13 nM. Besides, in experiment [5], the EC50 came out at 0.031 nM. Besides, the Kd in experiment [6] and in experiment [7] was 0.019 nM throughout. Moreover, the koff in experiment [7] worked out at 2.7e-05 s⁻¹. Moreover, the kon in [7] came to 1.4e+06 M⁻¹ s⁻¹.

B3: anti-human TGFβRII mAb TGF2 (antibody, V domains shown)
VH: QVQLVQSGAAVKKPGESLKISCKGSGYRFTSYWIGWVRQMPGKGLEWMGIIYPGDSDTRYSPSFQGQVTISAGKSISTAYLQWSSLKASDTAMYYCARHGRGYNGYEGAFDIWGQGTMVTVSS
VL: DIQMTQSPSSLSASVGDRVTITCRASQGISSWLAWYQQKPEKAPKSLIYAASSLQSGVPSRFSGSGSGTDFTLTISSLQPEDFATYYCQQYNSYPWTFGQGTKVEIKG
notes: as for B2
Consider B3, for which, in experiment [10], the binding result is on record as “binds”. In addition, the “IC50 in the p-Smad2 inhibition assay (TGFβ-induced phosphorylation of Smad2)” value in experiment [1] was under 25 nM. Further, the values for the concentration for half-maximal inhibition (IC50) in experiment [2], in experiment [3] and in experiment [4] were 0.19 nM, 0.42 nM and 0.25 nM, respectively. In experiment [5], the EC50 was determined as 0.048 nM. Further, the Kd in experiment [6] and in experiment [7] was 0.078 nM in each case. Besides, the koff in experiment [7] turned out to be 3.4e-05 s⁻¹. Besides, in experiment [7], the kon amounted to 430000 M⁻¹ s⁻¹.
